Test results as given in US20250129150A1 (APOGEE THERAPEUTICS, published 2025).
Like-named read-outs stand apart in the source and are kept apart here.

T1: recombinant human CD32a (167R) (human, UniProt P12318 36-218)
T1 sequence (looked up): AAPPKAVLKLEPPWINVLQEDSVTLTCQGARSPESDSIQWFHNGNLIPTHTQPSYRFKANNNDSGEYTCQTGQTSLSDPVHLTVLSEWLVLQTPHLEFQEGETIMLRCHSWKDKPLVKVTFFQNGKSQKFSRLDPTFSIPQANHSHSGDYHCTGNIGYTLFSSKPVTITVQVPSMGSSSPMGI

T2: recombinant human CD32b (human, UniProt P31994 46-217)
T2 sequence (looked up): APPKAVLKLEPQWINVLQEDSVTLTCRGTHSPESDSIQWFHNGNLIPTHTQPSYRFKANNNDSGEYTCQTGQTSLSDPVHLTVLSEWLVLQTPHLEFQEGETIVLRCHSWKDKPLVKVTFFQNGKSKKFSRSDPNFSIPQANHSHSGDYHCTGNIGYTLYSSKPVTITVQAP

T3: Recombinant Cynomolgus IL-13 Protein, His Tag (SINO BIOLOGICAL, Cat. 11057-C07H) (cynomolgus monkey, UniProt Q5I6E4 19-132 (Macaca thibetana entry))
T3 construct: also called Cyno IL-13; cynomolgus monkey IL-13
T3 chain: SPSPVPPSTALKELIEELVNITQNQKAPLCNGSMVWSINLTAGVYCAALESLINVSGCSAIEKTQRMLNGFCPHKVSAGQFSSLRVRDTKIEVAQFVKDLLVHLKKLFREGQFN

B1: Lebrikizumab (Construct 1) (antibody, human IgG4 S228P, kappa)
heavy: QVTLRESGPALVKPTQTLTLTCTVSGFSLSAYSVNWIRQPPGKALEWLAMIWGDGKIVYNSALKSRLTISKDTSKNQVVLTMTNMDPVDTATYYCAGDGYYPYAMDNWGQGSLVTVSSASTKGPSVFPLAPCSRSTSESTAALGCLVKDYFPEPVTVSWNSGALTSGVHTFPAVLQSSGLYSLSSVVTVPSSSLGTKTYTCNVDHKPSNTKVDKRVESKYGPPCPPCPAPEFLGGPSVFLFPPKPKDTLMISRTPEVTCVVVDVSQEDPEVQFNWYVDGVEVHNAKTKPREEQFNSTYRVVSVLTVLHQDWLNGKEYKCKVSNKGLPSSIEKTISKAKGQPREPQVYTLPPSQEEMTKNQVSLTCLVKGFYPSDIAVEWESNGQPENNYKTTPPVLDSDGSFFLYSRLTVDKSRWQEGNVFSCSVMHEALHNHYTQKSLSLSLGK
light: DIVMTQSPDSLSVSLGERATINCRASKSVDSYGNSFMHWYQQKPGQPPKLLIYLASNLESGVPDRFSGSGSGTDFTLTISSLQAEDVAVYYCQQNNEDPRTFGGGTKVEIKRTVAAPSVFIFPPSDEQLKSGTASVVCLLNNFYPREAKVQWKVDNALQSGNSQESVTEQDSKDSTYSLSSTLTLSKADYEKHKVYACEVTHQGLSSPVTKSFNRGEC
notes: also called Lebrikizumab-HC; Lebrikizumab-LC
B2: Construct 133 (antibody, human IgG1, kappa, L234A L235A)
heavy: EVQLQESGPGLVKPSETLSLTCTVSGFSLNAYSVNWIRQPPGKGLEWLGMIWGDGKIVYNSALKSRLTISKDSSKNQVSLKLSSVTAADTAVYYCAGDGYYPYAMDNWGQGTTVTVSSASTKGPSVFPLAPSSKSTSGGTAALGCLVKDYFPEPVTVSWNSGALTSGVHTFPAVLQSSGLYSLSSVVTVPSSSLGTQTYICNVNHKPSNTKVDKKVEPKSCDKTHTCPPCPAPEAAGGPSVFLFPPKPKDTLYITREPEVTCVVVDVSHEDPEVKFNWYVDGVEVHNAKTKPREEQYNSTYRVVSVLTVLHQDWLNGKEYKCKVSNKALPAPIEKTISKAKGQPREPQVYTLPPSRDELTKNQVSLTCLVKGFYPSDIAVEWESNGQPENNYKTTPPVLDSDGSFFLYSKLTVDKSRWQQGNVFSCSVMHEALHNHYTQKSLSLSPG
light: DIQLTQSPSSLSASVGDRVTITCRASKSVDSYGNSFMHWYQQKPGKAPKLLIYLASNLESGVPSRFSGSGSGTDFTLTISSLQPEDFATYYCQQNNEDPRTFGGGTKVEIKRTVAAPSVFIFPPSDEQLKSGTASVVCLLNNFYPREAKVQWKVDNALQSGNSQESVTEQDSKDSTYSLSSTLTLSKADYEKHKVYACEVTHQGLSSPVTKSFNRGEC
notes: also called HC1; LC6
B3: Construct 134 (antibody, human IgG4, kappa)
heavy: EVQLQESGPGLVKPSETLSLTCTVSGFSLNAYSVNWIRQPPGKGLEWLGMIWGDGKIVYNSALKSRLTISKDSSKNQVSLKLSSVTAADTAVYYCAGDGYYPYAMDNWGQGTTVTVSSASTKGPSVFPLAPCSRSTSESTAALGCLVKDYFPEPVTVSWNSGALTSGVHTFPAVLQSSGLYSLSSVVTVPSSSLGTKTYTCNVDHKPSNTKVDKRVESKYGPPCPSCPAPEFLGGPSVFLFPPKPKDTLYITREPEVTCVVVDVSQEDPEVQFNWYVDGVEVHNAKTKPREEQFNSTYRVVSVLTVLHQDWLNGKEYKCKVSNKGLPSSIEKTISKAKGQPREPQVYTLPPSQEEMTKNQVSLTCLVKGFYPSDIAVEWESNGQPENNYKTTPPVLDSDGSFFLYSRLTVDKSRWQEGNVFSCSVMHEALHNHYTQKSLSLSLGK
light: B2 light
notes: also called HC1; LC6
B4: Construct 136 (antibody, human IgG1, kappa, L234A L235A)
heavy: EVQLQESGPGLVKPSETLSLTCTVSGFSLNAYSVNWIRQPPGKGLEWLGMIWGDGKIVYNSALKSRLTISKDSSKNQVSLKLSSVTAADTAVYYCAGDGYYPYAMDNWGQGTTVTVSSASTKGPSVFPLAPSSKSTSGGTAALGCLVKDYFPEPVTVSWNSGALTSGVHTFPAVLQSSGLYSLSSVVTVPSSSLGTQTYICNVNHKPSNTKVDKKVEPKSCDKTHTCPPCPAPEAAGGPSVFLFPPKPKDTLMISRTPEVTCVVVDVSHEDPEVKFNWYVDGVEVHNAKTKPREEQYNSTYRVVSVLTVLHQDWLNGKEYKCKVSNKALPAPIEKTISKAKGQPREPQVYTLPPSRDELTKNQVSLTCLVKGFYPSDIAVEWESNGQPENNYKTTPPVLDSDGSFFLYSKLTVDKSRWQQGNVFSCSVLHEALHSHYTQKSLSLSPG
light: B2 light
notes: also called HC1; LC6

Columns and labels:
hIL-13 [1] = target: T4, hIL-13 (human, UniProt P35225 35-146, limits assumed); experiment: cell-based or functional assay
[2] = target: T1, recombinant human CD32a (167R); experiment: SPR, antibody captured on anti-kappa chip, recombinant human receptor as analyte
Procedure: (§1) Binding affinity (KD) of antibodies to Fc receptors and C1q were determined through surface plasmon resonance (SPR) using a Biacore 8K. Briefly, an SPR chip functionalized with an anti-kappa light-chain antibody was used to capture purified antibodies normalized to […], at a flow rate of 10 uL/min for 90 seconds or 120 seconds. A paired channel with only buffer was used as reference. Subsequently, varying concentrations of recombinant human CD32a (167H), CD32a (167R), CD32b, CD16a (176V), CD16a (176F), FcRn, CD64, and C1q were injected over the surface with captured purified antibody as well as the reference channel. Regeneration of the chip between different concentrations of different antigens were performed with 10 mM Glycine HCl, pH 1.5 and antibody was again captured. Association and dissociation rate constants were subsequently determined through fitting to a 1:1 Langmuir binding model or steady-state analysis model, whichever applicable, using the Biacore Insight Evaluation Software from which a KD value was derived.

recombinant human CD64 = recombinant human CD64 (human, UniProt P12314 16-288); experiment: as above
Procedure: as §1

recombinant human CD32b = target: T2, recombinant human CD32b; experiment: as above
Procedure: as §1

hIL-13 [3] = target: T4, hIL-13; experiment: cell-based or functional assay; remark: listed apart in the source
hIL-13 [4] = target: T4, hIL-13; experiment: cell-based or functional assay; remark: listed apart in the source
biotinylated hIL-13 = biotinylated hIL-13 (human, UniProt P35225 35-146, limits assumed, biotinylated (site not stated)); experiment: FACS; blockade of biotinylated hIL-13 (0.05 ug/mL) binding to HEK293 cells expressing hIL-13Rα1/hIL-4Rα
How it was run: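 HEK293 cells stably co-expressing hIL-13Rα and hIL-4Rα (200,000/well) stained at 4 °C for 1 h, then a further 1 h at 4 °C in the dark. Median fluorescence intensity read by flow cytometry.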

[5] = target: T5, Recombinant Human IL-13 Protein, His Tag (Acro Cat. IL3-H52H4) (human, UniProt P35225 35-146); experiment: SPR (Biacore 8K), mAb captured on Protein G chip, IL-13 as analyte
T5 construct: Bought protein; also called Hu IL-13; not shown: His Tag
How it was run: (§2)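 Antigen injected multi-cycle over freshly captured mAb; surfaces regenerated with glycine pH 1.5 for 30 sec. Double-referenced sensorgrams fit to a 1:1 binding model for apparent ka and kd; KD = kd/ka.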

[6] = target: T3, Recombinant Cynomolgus IL-13 Protein, …; experiment: as above
How it was run: as §2

hIL-13 [7] = target: T4, hIL-13; experiment: cell-based or functional assay; remark: listed apart in the source
recombinant human FcRn = target: T6, recombinant human FcRn (human, UniProt P55899 24-297; P61769 21-119); experiment: SPR, antibody captured on anti-kappa chip, FcRn as analyte, pH 5.8; pH 5.8
T6 construct: also called neonatal Fc receptor
Procedure: as §1

hIL-13 [8] = target: T4, hIL-13; experiment: cell-based or functional assay; remark: listed apart in the source
hIL-13 [9] = target: T4, hIL-13; experiment: cell-based or functional assay; remark: listed apart in the source
recombinant human C1q = target: T7, recombinant human C1q (human, UniProt P02745 23-245; P02746 28-253; P02747 29-245, limits assumed); experiment: SPR, antibody captured on anti-kappa chip, C1q as analyte; signal relative to rituximab
T7 construct: subunit composition is from general knowledge
Procedure: as §1

[10] = target: recombinant human CD16a (176V) (human, UniProt P08637 17-208); experiment: SPR, antibody captured on anti-kappa chip, recombinant human receptor as analyte
Procedure: as §1

hIL-13 [11] = target: T4, hIL-13; experiment: cell-based or functional assay; remark: listed apart in the source
hIL-13 [12] = target: T4, hIL-13; experiment: ELISA
[13] = target: T5, Recombinant Human IL-13 Protein, His …; experiment: SPR (Biacore 8K), mAb captured on Protein G chip, IL-13 as analyte; remark: listed apart in the source
Procedure: Samples were injected in a multi-cycle manner over freshly captured mAb, by regenerating the capture surfaces with injection of glycine pH 1.5 for 30 sec at a flow rate of 30 μL/min. The data was processed and analyzed with Biacore Insight Evaluation Software Version 2.0.15.12933 (GE Healthcare) as follows. […] The responses from the two buffer blank injections were then subtracted from the reference subtracted data (2-1) to yield double-referenced data, which were fit to an 1:1 binding model to determine the apparent association (ka) and dissociation rate constants (kd). Their ratio provided the apparent equilibrium dissociation constant or affinity constant (KD=kd/ka).

recombinant human CD16a (176V), sequence (P08637 17-208 F176V): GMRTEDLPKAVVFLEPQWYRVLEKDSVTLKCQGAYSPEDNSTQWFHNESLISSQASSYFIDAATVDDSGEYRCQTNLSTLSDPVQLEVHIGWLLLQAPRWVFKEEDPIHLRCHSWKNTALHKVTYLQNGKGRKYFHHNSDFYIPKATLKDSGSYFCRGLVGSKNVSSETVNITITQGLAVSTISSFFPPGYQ
T6 sequence (P55899 24-297 limits assumed, chain 1 of 2): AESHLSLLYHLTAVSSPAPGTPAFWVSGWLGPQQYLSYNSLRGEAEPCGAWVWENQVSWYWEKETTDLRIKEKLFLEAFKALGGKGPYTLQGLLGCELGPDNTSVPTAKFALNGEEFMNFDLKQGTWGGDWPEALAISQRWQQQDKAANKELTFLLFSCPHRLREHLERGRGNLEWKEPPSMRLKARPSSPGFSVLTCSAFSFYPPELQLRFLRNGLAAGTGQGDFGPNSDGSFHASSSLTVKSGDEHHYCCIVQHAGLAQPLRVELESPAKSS
T6 sequence (P61769 21-119 limits assumed, chain 2 of 2): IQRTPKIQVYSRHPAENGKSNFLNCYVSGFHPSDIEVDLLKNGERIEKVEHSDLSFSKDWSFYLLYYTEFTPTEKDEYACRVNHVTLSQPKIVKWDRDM
T5 sequence (P35225 other isoform, or with tags, fused parts or gaps limits assumed): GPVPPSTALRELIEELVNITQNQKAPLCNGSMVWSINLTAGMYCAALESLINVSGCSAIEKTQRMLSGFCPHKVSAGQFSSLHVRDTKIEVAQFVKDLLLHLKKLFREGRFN
biotinylated hIL-13, sequence (P35225 other isoform, or with tags, fused parts or gaps limits assumed): as above
T4 sequence (P35225 other isoform, or with tags, fused parts or gaps limits assumed): as above
recombinant human CD64, sequence (P12314 16-288 limits assumed): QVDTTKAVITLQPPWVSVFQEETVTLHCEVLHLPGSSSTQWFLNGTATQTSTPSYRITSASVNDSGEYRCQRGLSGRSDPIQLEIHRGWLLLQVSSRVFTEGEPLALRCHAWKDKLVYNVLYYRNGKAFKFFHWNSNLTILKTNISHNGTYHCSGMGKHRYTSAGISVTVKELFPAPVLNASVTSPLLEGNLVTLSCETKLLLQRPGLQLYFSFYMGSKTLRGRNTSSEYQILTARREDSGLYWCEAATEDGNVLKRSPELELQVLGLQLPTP
T7 sequence (P02745 23-245 limits assumed, chain 1 of 3): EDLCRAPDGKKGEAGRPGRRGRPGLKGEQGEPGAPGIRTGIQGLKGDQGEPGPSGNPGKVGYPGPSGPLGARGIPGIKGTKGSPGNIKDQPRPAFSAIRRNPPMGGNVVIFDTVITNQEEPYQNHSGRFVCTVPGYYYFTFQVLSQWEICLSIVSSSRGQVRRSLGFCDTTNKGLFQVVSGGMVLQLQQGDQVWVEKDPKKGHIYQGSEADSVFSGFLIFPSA
T7 sequence (P02746 28-253 limits assumed, chain 2 of 3): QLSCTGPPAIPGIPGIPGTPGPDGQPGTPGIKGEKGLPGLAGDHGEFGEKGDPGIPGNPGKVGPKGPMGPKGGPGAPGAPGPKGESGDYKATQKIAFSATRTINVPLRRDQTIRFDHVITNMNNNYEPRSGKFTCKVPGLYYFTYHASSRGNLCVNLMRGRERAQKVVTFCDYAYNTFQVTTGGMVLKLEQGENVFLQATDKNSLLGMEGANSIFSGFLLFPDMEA
T7 sequence (P02747 29-245 limits assumed, chain 3 of 3): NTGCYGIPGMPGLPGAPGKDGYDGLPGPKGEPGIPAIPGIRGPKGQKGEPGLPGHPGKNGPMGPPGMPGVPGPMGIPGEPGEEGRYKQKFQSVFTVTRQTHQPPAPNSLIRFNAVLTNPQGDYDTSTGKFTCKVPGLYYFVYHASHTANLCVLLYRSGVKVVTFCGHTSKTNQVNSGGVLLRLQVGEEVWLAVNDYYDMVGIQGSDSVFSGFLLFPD

Binder | TARC Inhibition IC50 (A549 cells) (hIL-13 [1]) | Kd [2] | Kd (recombinant human CD64) | Kd (recombinant human CD32b) | CCL2 Secretion IC50 (HaCaT cells) (hIL-13 [3]) | CCL26 Secretion IC50 (HaCaT cells) (hIL-13 [3]) | NTRK1 Expression IC50 (HaCaT cells) (hIL-13 [3]) | pSTAT6 Inhibition IC50 (HT-29 cells) (hIL-13 [4]) | IC50 (biotinylated hIL-13) | Kd [5] | Kd [6] | Kd (recombinant human FcRn) | CD23 Expression Inhibition IC50 (human PBMCs) (hIL-13 [8]) | pSTAT6 Inhibition IC50 (human PBMCs) (hIL-13 [8]) | TF-1 Proliferation Inhibition IC50 (hIL-13 [9]) | C1q (Signal Relative to Rituximab) (recombinant human C1q) | binding result [2] | binding result [10] | binding result (recombinant human CD64) | Kd (hIL-13 [12]) | other results
B1 | 0.74 nM | 2380 nM | 1.12 nM | 2930 nM | 0.076 nM | 0.055 nM | 0.056 nM | 0.23 nM | 1.11 nM | 0.131 nM | 0.309 nM | 1060 nM | 0.81 nM | 0.38 nM | 0.2 nM | – | – | – | – | – | TARC Release IC50 (A549 cells) (hIL-13 [7]): 0.9 nM
B2 | 0.86 nM | – | – | – | 0.077 nM | 0.06 nM | 0.062 nM | 0.28 nM | 0.89 nM | 0.0777 nM | 0.208 nM | 150 nM | 0.85 nM | 0.44 nM | 0.15 nM | 15.9% | no binding | no binding | no binding | 0.019 nM | binding result (recombinant human CD32b): no binding; TF-1 Proliferation Inhibition IC50 (hIL-13 [11]): 0.16 nM; Kd [13]: 0.077 nM
B3 | 0.99 nM | 8140 nM | 2.8 nM | 8620 nM | – | – | – | 0.2 nM | 1.08 nM | 0.105 nM | 0.33 nM | 160 nM | – | – | 0.18 nM | 25.3% | – | no binding | – | 0.05 nM | –
B4 | 0.89 nM | – | – | – | 0.074 nM | 0.052 nM | 0.053 nM | 0.3 nM | 1.02 nM | 0.0698 nM | 0.161 nM | 90 nM | – | – | 0.15 nM | 25.4% | no binding | – | no binding | 0.018 nM | Kd [10]: 4670 nM; binding result (recombinant human CD32b): no binding
